Assay: soluble on expression in E. coli; label from the status in PepcDB or PDB records

| Sequence | soluble on expression in E. coli |
| --- | --- |
| LHLELEEKLAGIAAWEPTAPRLLNPGVSSGKALVASGVAAAHAREVLEDLGLRDVIPLWQVVQPYPLHTAFVERLLADYDEILVLEETTGVMELQLADRHRVKGKRSGFVPEVGELSPELVERLVAAFAGIPAAPSVAPPTGGGRRPTLCPGCPHRASFHAIKRAAPKGIYPSDIGCYTLGLNLGGVDTVLCMGAAVSQAAGFYHAYKLSGQVPDIVATIGDSTFFHAGIPPLIDAVVQDARFVLVILDNATTAMTGNQPTPALGWGAGGVPTATVDMEGLVKACGV | not soluble |
| MFQLPILNFSPQQVAGVCETLEESGDVERLGRFLWSLPVAPAACEALNKNESVLRARAIVAFHGGNYRELYHILENHKFTKESHAKLQALWLEAHYQEAEKLRGRPLGPVDKYRVRKKFPLPRTIWDGEQKTHCFKERTRHLLREWYLQDPYPNPSKKRELAQATGLTPTQVGNWFKNRRQRDRAAAAKNRLQQQVLSQGPGRVLRSEGEGTPEVLGVASSPAASLSSKAATSAISITSSDSECDI | soluble |
| MGSDKIHHHHHHMKKSTLIDKFLDLLSSRSSLREIQNNFIDANIMRDSSINQKYNGQRKSLAWEYISTLNLEDEAEFSKLLNVIETYLFQWNLYIHEVDEDEEINRLIKIINVLGYEYNKDTGKITKNEREVNLSTIKSLAIKFDIEYVLKECNRIEKEALTDPEDAITSAKSMVESTLKHILDSEGEKFNNNETLRGLYKKVSNIMNLSPGGHNENTFKTILSGMINVINGLDEVRNEYGDAHGKSKKNYRPETRHAFLAINAARTITEFLLASYKK | not soluble |
| MEHKIGRGLLLGGLLSRFAGFLQSSEESLTSSFASYSSSFFLLTNTRDKRRSERTHTYMQVAQIICAHGATISTTRATLQRAPQSLLATSPDATSDSDDKIVRILVEALRRSDMSIIVSESFDQWARLAVEAKRLGLISFVEAACPSTISISCHAALSTGRINPEVTFRKVHNIHFMAQKTTGKAFASSNPEPVKGTTTSPFFLLSFFFPFFCSFLLRFSPINFPLLLLMNTAIGEYVLRIVVSGKVIMCRAVFGDSLNECRDGGGTDFEMDRYTSR | not soluble |
| MVAASKEFVFHHTFKDVSQLEDGDFFKSPEEIHYNAEWFILVIRTKDQLEAYLHCDNEKDDNVAWTVDAEFSLKIASSSGSYAMKFQKGCFDGFGLGWNDFVSWDSLTEDFLYDNSFTIEACVKITKMTGFSKDVLRSFDESEKRFSDVILVVGDEKFYVLKLFLASHSSYFNALFLGKFKEADQSEVTLQNIDPTDFQSLLEVLYGEPAIDDGTIDGVLLLAHMLDVTLAIRKCEEFLIEKSMKSMRELLKMANQYQLENLKVKFYFLKIPEN | not soluble |
| RPNDIYVNMKTDFKAQLARCQKLLDGGARGQNACSEIYIHGLGLAINRAINIALQLQAGSFGSLQVAANTSTVELVDELEPETDTREPLTRIRNNSAIHIRVFRVTPK | not soluble |
| MERVRRASHAGSWYTNNARKLDEELDGWLRAAGLTKSPDVRAVIAPHAGYSYSGRCAAYAFGNIDPTNISRVFLLGPSHHYYTPKCALTRATIYSTPIGDLPVDHEVIEELNATGKFDFMDLSVDEAEHSMEMHLPYLSKVFQGHNVKVVPILVGALNSQNEAMYGQLLSKYLDDPKNFFSISSDFCHWGTRFSYTYYDKSHGAIHKSIEALDRMGMEIIETGNPDAFKQYLQEYENTICGRHPISVFLSMLKHCLTKIKIGFVRYEQSSQCKSMRDSSVSYASAAAKVDTPAEEEKD | soluble |
| ATPAPAAEMPGITIISASQTGNARRVAEALRDDLLAAKLNVKLVNAGDYKFKQIASEKLLIVVTSTQGEGEPPEEAVALHKFLFSKKAPKLENTAFAVFSLGDTSYEFFCQSGKDFDSKLAELGGERLLDRVDADVEYQAAASEWRARVVDALKSRAPVAAPSQSVA | soluble |
| MGSDKIHHHHHHMKFSIDRDALLKPLQLVSGAVERRHNLPILANLLVEVSGHSLKMTGTDLEVELVGEATVHGDVQEGRTTVPAKKLLDIVKSLPEQTEIKVEQQENKWLLRCGRSRFSLATLPAEEYPNVEAFRPDIEFTLKQGTLKSLIDSTQFSMANQDVRYYLNGLLIETEGNVLRAVATDGHRLALSHRMIEASLPEKQVIVPRKGVVELSRLLDAEDQDITLAIGESAIRATTATAVFTSKLVDGRFPDYRRVLPKGGDKIVIASRNQLKQALLRASILSNEKFRGVRILLEDGLLKITANNPEQEEAEEIIDVDYNSTTLEIGFNVSYLLDVLNSLRSDEVRVTLIDSNSSALIENHVEEDSMYVVMPMRL | not soluble |
| MGSDKIHHHHHHMWQDILNIHPDCIEDFINFDKLPGQAASLIAFAGMSYLQTEYKIGKTGKGNICLNNENNSGHVHYLISTHAGEGKIKLGNNEYLVKPGSIVLLPAGTPFLYELSGEYWEMCWLLLHDCSEYKFVHQLHPSVYSSINAERLYQTMSLIREFQHGESIYQSDIILRLVEVLVYQIAQTLNMGQQLTKQQQKFHSLIRRVNKQLQLSWTVKQLAAEMHMSEPHFFRLCKKEMGMTPIKLLTHTRLEYACYLLRYTQYNLDQIADTVGYGDSASFAHRFKKDYGLSPGRWRKEQINNFQSNDIENGEKR | not soluble |
| MKPAAREARLPPRSPGLRWALPLLLLLLRLGQILCAGGTPSPIPDPSVATVATGENGITQISSTAESFHKQNGTGTPQVETNTSEDGESSGANDSLRTPEQGSNGTDGASQKTPSSTGPSPVFDIKAVSISPTNVILTWKSNDTAASEYKYVVKHKMENEKTITVVHQPWCNITGLRPATSYVFSITPGIGNETWGDPRVIKVITEPIPVSDLRVALTGVRKAALSWSNGNGTASCRVLLESIGSHEELTQDSRLQVNISGLKPGVQYNINPYLLQSNKTKGDPLGTEGGLDASNTERSRAGSPTAPVHDESLVGPVDPSSGQQSRDTEVLLVGLEPGTRYNATVYSQAANGTEGQPQAIEFRTNAIQVFDVTAVNISATSLTLIWKVSDNESSSNYTYKIHVAGETDSSNLNVSEPRAVIPGLRSSTFYNITVCPVLGDIEGTPGFLQVHTPPVPVSDFRVTVVSTTEIGLAWSSHDAESFQMHITQEGAGNSRVEITTNQSIIIGGLFPGTKYCFEIVPKGPNGTEGASRTVCNRTGKQI | soluble |
| MSWKIIEKYRRILAQEEGNSPKRRGGKLTVCLVYPNRYGVAMSNLGFQAVHALLNAESDILCERAFLPDPDDLREYRRSGARLLSLESQEPLSSFDIIAFSVSFESDYLNIPVIFDLAGIPALAAERTGSHPLVMGGGAALFLNPEPVADFLDLIVVGEGEAILPTFLDHIRADGIGDRAMFLAGVAGLPGIYVPSLYATEYDGARLVSREAKDGAPEQVKRIWMAEPDGRATVSEILTPGTEFSDMYLVEVSRGCGRGCRFCAAGFIYHPYRQRSLDAVKAAVAEGLSHRRKIGLVGAAVSDFREIGELCRHILAEGGTVSVSSLRIDRLDEGMIEVLKASGHKTVALAPEGGSQRIRDLINKNLTEEQILAACDLLIGHDILNLKLYFIIGLPTETMDDLEEMALLVEKIRKRVIAAARKNKRLGEIILSVNPFVPKPFTPFQWCGMEDTPSLEKKLKYLQQTVGRLSNVRLIAESPKDAWLQALLSRGDRRLSGFLLRAAELGNWKRAAREFPVDTDFLVHRTIPLDEMLPWDVIASADAERLRREYLKATPPRLEHHHHHH | not soluble |
| MSLGETAGKLPRKPTLGPETAGATLVIPGETDRLASLYARAQAEGGKVVLWAGGDAPNQMDWLKTAFESRFPGVTLDVTVDLSKFHDLRIDQELAAGTLTPDVAMLQTTFDFDKWKARDVLLRYKPVGFARQKKGYADPDGAYVTAYNNAFVPTYASVRLPAERYPTRFADYLKPAFKGKLVLTYPHDDDAVLYVYDKLERRYGSGFLRALAAQKPNFLRGTAAPAASVGADSIGSLGNLTGYATDSDTPAGYFIPTDEPFIVWNQRAAIFKAARHPATAKLLLSYLGSAEFQSSYGGWRARADVGEAPGLPPLESLKNVDVHDFTRWMTDRQRVASLRRHMAEIFGPVRGESPLRDPALMSLLGLTANDIVALPEPDLPIYEGHHHHHH | soluble |
| MTSITVQLRSGLDGVYFALKQMSGLRAKLLLVGNENPVPTVLPASQRGTPFPGGNTMTQASLIRLSELNNDAQYNLNDTSMYNPVGAAAYGVNGDKIGTVRDALVEPETGRIRYFLVDVGGWFSSKEVLVPVGYGRVDDSGVYFDSLTKDQVKDMSEYRADQAYSSEMMDTDERVLRGNQSQEEYHQRAYQTPDRLQLLEERLVVNKDRFKAGSVQIGKRIETRQETVSVPLQREEVVIERHAVTDGRAVEGAVLGEGHQTMSVDLEAERANISKQAYVTEEVSVGKRAVTETQQVTETVGREVLDVNQTGDVRTTEGTALTDDTTKRNILEHHHHHH | soluble |
| MSLEPSVTGPSEAPVLDTAWMKAVPSVRPVPAGSAAEALEALAVKGRAADDSYERTAFGQAWLDVDRNGCDTRNDILRRDLAGVQFTEGSRCRVAGGEFHEPYTGAVVTFTRGAESSKAVQIDHVVALGDAWQKGAQQLTPQQRQSLANDPLNLVAADGPANQEKSASDAASWLPKNKTFRCHYVARQISVKAAYGLWVTQPEKDAMKRVLDSCPQQQTVMPREGHHHHHH | soluble |
| MSLQTFVIVGHVIPNNDMSPTLNKGDRVIVNKIKVTFNQLNNGDIITYRRGNEIYTSRIIAKPGQSMAFRQGQLYRDDRPVDASYAKNRKIKDFSLRNFKELDGDIIPPNNFVVLNDHDNNQHDSRQFGLIDKKDIIGNISLRYYPFSKWTIQFKSEGHHHHHH | soluble |
| GKRKLATISTKGKVKDLTDTLVGSSIGRPYISGGFTASSEGYMAFTQGSSSRPADVAVINTRKKLVKLTQLNEDLLAHKNLGKVTEINYKSSFDDEPIQGWYVTPPNFDPKKKYPLILEIHGGPHLAYGPHFSAELQRFAAQGYVVFYDNHRGSSSYGERFAMLLKYKYSSKEDFADHNSGVDAMLGLGFIDEGNLFIAGGSAGGIATAYAIGLTDRFSAAVVVKPVINWLSKVLTADSGLGQIPTQFPGMPWEHVEHYWKRSPMSLVGNVTTPTMLMTGEEDLRTPMAQTEQFYQALKLRKIDTVLVKVPGSPHGIAGKPSRMITKIEHTLAWFEKYKT | not soluble |
| MNPKFPDSPFLNDLLARLGEVLRQSPAQDFERNLKAGVTSMLTKLDLVSREEFDVQAAVLARTREKLGQLEARLADLEKHERQADEG | not soluble |
| MGSSHHHHHHSSGLVPRGSHMIVREGSAEILVPEVYHGPGKRGTGFYNADQKINRDITIEFIKKMGIRNVLDGFGGTGIRGIRISKETDSAVTISEVSPDSYRLIRDNVERNGSQASVINDSFECVLQHGAYEYVDVDPYGSPVPYLDAALMGVKRNGFLGVTATDQSALTGSVPHKTRIRYDALIKNDTFRHEMGIRLLIGYMAKRAASLGRFIDPLISIWHGHYYRVFVRVRKGFEGAGRMMQNLGYVNKHNLLSGIYQDMDEGPVWKGNLQDNAVAEAVLASAGHKAFNPEENRLLFCDLTDIARARHTSLPDIESVIDALSSSGHAASRTMFSPTGIKTDASCDLVESLMMDTLHRRSPA | soluble |
| MNQEKLDLRKSAADDTHSGAAFAFQALTPDLILDAIESLGVYPETGLLALNSYENRVYQFRSDEGQRYVVKFYRPDRWSDAQIQEEHDFALALAEQEIPMAVPTAVQGHTLHHFQGFRFALFPSIGGRAFEVDNLEQLEFVGRFIGRMHQYGAQSVFQAREPLNPQILGDEPLAWLKQSELVPTSLRVAFFTVVEQVLAKVNTLWAQQRFKPIRLHGDLHPGNILWTPDGPGFVDLDDARMGPAIQDLWMMLTGDRAQQQLQLEVLLEAYEEFCEFDTRQLALIEPLRALRMVHYNAWIGRRWQDPAFPMHFPWFGDEKYWEQQILAFKEQLAALDEPPLSLIPY | not soluble |
| AELTALESLIEMGFPRGRAEKALALTGNQGIEAAMDWLMEHEDDPDVDEPL | soluble |

— the DeepSol protein solubility set
